This note sets out measurements from patent publication US20250313645A1 (COMPASS THERAPEUTICS, published 2025).

Test [1] concerns the target T1, Fc-, mouse IgG2a-, or His-tagged human CD137 (human, UniProt Q07011 24-186).
T1 construct: Sources were ACRO Biosystems, Sino Biological and internal; not shown: Fc, mouse IgG2a or His tag
Nature of the test: BLI (Octet HTX), tagged CD137 on biosensor, Fab 0-500 nM in solution, global 1:1 fit, apparent KD; upper end of the printed range 50-70 nM. As to the method:
(§1) The anti-CD137 antibodies were further tested for their binding to CD137 from multiple species. Specifically, mAb1, mAb8 and mAb10 were analyzed for binding to human, mouse, cynomolgus and canine CD137. Kinetic experiments were performed on OCTET HTX (ForteBio) in kinetics buffer (1×PBS, pH 7.4, 0.1 mg/ml BSA, and 0.002% Tween 20). Fc-, mouse IgG2a-, or His-tagged CD137 (human, mouse, cyno or canine) were loaded for 5 minutes on pre-hydrated biosensors, AHC, AMC or NTA respectively. The sensors were then dipped into Fabs (0, 5.12, 12.8, 32, 80, 200 and 500 nM) for 5 minutes of association, following by 15 minutes of dissociation. Results were analyzed with ForteBio Data Analysis 9.0 and fit globally to a 1:1 binding model to determine the apparent KD. KD for human and mouse CD137 binding were confirmed by using antigens from different sources (ACRO Biosystems, Sino Biological and internal).
A general note: BLI is a label-free optical method that tracks binding on a fibre tip over time.

Test [2] deals with T1, Fc-, mouse IgG2a-, or His-tagged human …. Nature of the test: BLI (Octet HTX), tagged CD137 on biosensor, Fab 0-500 nM in solution, global 1:1 fit, apparent KD; lower end of the printed range 50-70 nM. As to the method: as §1

B1: mAb1 Fab (Fab, V domains shown)
VH: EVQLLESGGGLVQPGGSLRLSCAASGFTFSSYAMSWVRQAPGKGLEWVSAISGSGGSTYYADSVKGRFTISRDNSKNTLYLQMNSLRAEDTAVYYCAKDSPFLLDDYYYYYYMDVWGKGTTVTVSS
VL: DIQMTQSPSSVSASVGDRVTITCRASQGISSWLAWYQQKPGKAPKLLIYAASSLQSGVPSRFSGSGSGTDFTLTISSLQPEDFATYYCQQGHLFPITFGGGTKVEIK
Consider B1, for which the figures for the Kd in test [1] and in test [2] were ≤ 70 nM and ≥ 50 nM, respectively.
